The source of these data is patent US20250388672A1 (Ablynx, published 2025).

In experiment [1] the target is human HER2 (human, UniProt P04626 23-1255). Nature of the experiment: cell-based or functional assay.
In experiment [2] the target is T1, human CD20 (human, UniProt P11836 1-297).
T1 sequence (looked up): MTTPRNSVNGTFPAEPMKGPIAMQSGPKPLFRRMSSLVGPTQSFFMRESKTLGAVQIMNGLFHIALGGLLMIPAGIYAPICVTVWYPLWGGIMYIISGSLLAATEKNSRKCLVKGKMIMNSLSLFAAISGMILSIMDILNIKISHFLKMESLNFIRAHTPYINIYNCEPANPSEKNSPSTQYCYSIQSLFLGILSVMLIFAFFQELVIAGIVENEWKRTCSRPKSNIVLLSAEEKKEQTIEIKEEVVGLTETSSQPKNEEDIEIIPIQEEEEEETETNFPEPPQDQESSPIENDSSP
As to the kind of experiment: cell-based or functional assay.

Experiment [3] has as its target T1, human CD20. Nature of the experiment: flow cytometry on human CD20 positive Ramos cells. (Flow cytometry measures light scatter and fluorescence of single cells or particles in a stream.)
The target in experiment [4] is T1, human CD20. Nature of the experiment: cell-based or functional assay. The source holds these as a separate data set.

B1: T017000100 (bispecific antibody)
chain: EVQLVESGGGPVQAGGSLRLSCAASGRTYRGYSMGWFRQAPGKEREFVAAIVWSGGNTYYEDSVKGRFTISRDNAKNTMYLQMTSLKPEDSATYYCAAKIRPYIFKIAGQYDYWGQGTLVTVSSGGGGSGGGGSGGGGSGGGGSGGGGSGGGGSGGGGSEVQLVESGGGLVQAGGSLRLSCAASGITFSINTMGWYRQAPGKQRELVALISSIGDTYYADSVKGRFTISRDNAKNTVYLQMNSLKPEDTAVYYCKRFRTAAQGTDYWGQGTLVTVSSGAADYKDHDGDYKDHDIDYKDDDDKGAAHHHHHH
As to B1, in experiment [1], the “IC50 (M), xCELLigence based cytotoxicity (readout 18 h), MCF-7, E/T 15:1” value stood at 6.9e-11 M and the “IC50 (M), xCELLigence based cytotoxicity (readout 18 h), SKBR3, E/T 15:1” value was determined as 9.5e-12 M.

B2: T017000016 (bispecific antibody)
chain: EVQLVESGGGLVQPGGSLRLSCTFSGGTFSSYTMGWFRQAPGKEREFVAEVRWGGVTTYSNSLKDRFSISEDSVKNAVYLQMNSLKPEDTAVYYCAAVRQMYMTVVPDYWGQGTLVTVSSGGGGSGGGGSGGGGSGGGGSGGGGSGGGGSGGGGSEVQLVESGGGSVQAGGSLRLSCAASGRTFSTNPMGWFRQVPGKERELIAAVRWADGNTFYADSVKGRFTISRDNAKKTVYLQMNSLKSEDTATYYCAAGRPWSAYHSPAEYVHWGQGTLVTVSSGAADYKDHDGDYKDHDIDYKDDDDKGAAHHHHHH
notes: Bispecific Nanobody construct with tags, expressed in Pichia; also called 20CD019C07-35GS-T0170033G03-FLAG3-HIS6; CD20xCD3 (cluster C)
Regarding B2, the “Average IC50 (M), xCELLigence based human T cell mediated CHO-K1 CD20 killing assay, E:T 30:1, 44 h” value (from here on “Average IC50 (M) … 44 h”) in experiment [2] is 6.81e-12 M. This molecule registered an EC50 in experiment [3] of 1.5 nM. In addition, in experiment [4], the “% lysis (% dead cells at 500 nM Nanobody minus no Nanobody control), Ramos killing assay, E:T 10:1” value was 4% and the “Average IC50 (M), flow cytometry based primary human T cell mediated Ramos killing assay, E:T 10:1” value (“Average IC50 (M) … E:T 10:1” below) turned out to be 9.2e-09 M.

B3: T017000101 (bispecific antibody)
chain: EVQLVESGGGLVQAGGSLRLSCAASGITFSINTMGWYRQAPGKQRELVALISSIGDTYYADSVKGRFTISRDNAKNTVYLQMNSLKPEDTAVYYCKRFRTAAQGTDYWGQGTLVTVSSGGGGSGGGGSGGGGSGGGGSGGGGSGGGGSGGGGSEVQLVESGGGPVQAGGSLRLSCAASGRTYRGYSMGWFRQAPGKEREFVAAIVWSGGNTYYEDSVKGRFTISRDNAKNTMYLQMTSLKPEDSATYYCAAKIRPYIFKIAGQYDYWGQGTLVTVSSGAADYKDHDGDYKDHDIDYKDDDDKGAAHHHHHH
With B3, in experiment [1], the “IC50 (M), xCELLigence based cytotoxicity (readout 18 h), MCF-7, E/T 15:1” value is 1.1e-10 M and the “IC50 (M), xCELLigence based cytotoxicity (readout 18 h), SKBR3, E/T 15:1” value stood at 2.6e-11 M.

B4: T017000045 (bispecific antibody)
chain: EVQLVESGGGSVQAGGSLRLSCAASGRTFSTNPMGWFRQVPGKERELIAAVRWADGNTFYADSVKGRFTISRDNAKKTVYLQMNSLKSEDTATYYCAAGRPWSAYHSPAEYVHWGQGTLVTVSSGGGGSGGGGSGGGGSGGGGSGGGGSGGGGSGGGGSEVQLVESGGGLVQPGGSLRLSCTFSGGTFSSYTMGWFRQAPGKEREFVAEVRWGGVTTYSNSLKDRFSISEDSVKNAVYLQMNSLKPEDTAVYYCAAVRQMYMTVVPDYWGQGTLVTVSSGAADYKDHDGDYKDHDIDYKDDDDKGAAHHHHHH
As for B4, the “% lysis (% dead cells at 500 nM Nanobody minus no Nanobody control), Ramos killing assay, E:T 10:1” value in experiment [4] is 0%.

B5: T017000021 (bispecific antibody)
chain: EVQLVESGGGSVQAGGSLRLSCAASGRTFSTNPMGWFRQVPGKERELIAAVRWADGNTFYADSVKGRFTISRDNAKKTVYLQMNSLKSEDTATYYCAAGRPWSAYHSPAEYVHWGQGTLVTVSSGGGGSGGGGSGGGGSGGGGSGGGGSGGGGSGGGGSEVQLVESGGGLVQPGGSLRLSCTFSGGTFSSYTMGWFRQAPGKEREFVAEVRWGGVTTYSNSLKDRFSISEDSVKNAVYLQMNSLKPEDTAVYYCAAVRQMYMTVVPDYWGQGTLVTVSSGAADYKDHDGDYKDHDIDYKDDDDKGAAHHHHHH
notes: Bispecific Nanobody construct with tags, expressed in Pichia; also called T0170033G03-35GS-20CD019C07-FLAG3-HIS6; CD3xCD20 (cluster C)
As for B5, the “Average IC50 (M) … 44 h” value in experiment [2] was 1.52e-10 M. In experiment [3], this molecule displayed a half-maximal effective concentration (EC50) of 4.7 nM.

B6: T017000040 (bispecific antibody)
chain: EVQLVESGGGLVQPGGSLRLSCAASGDIYKSFDMGWYRQAPGKQRDLVAVIGSRGNNRGRTNYADSVKGRFTISRDGTGNTVYLLMNKLRPEDTAIYYCNTAPLVAGRPWGRGTLVTVSSGGGGSGGGGSGGGGSGGGGSGGGGSGGGGSGGGGSEVQLVESGGGLVQPGGSLRLSCTFSGGTFSSYTMGWFRQAPGKEREFVAEVRWGGVTTYSNSLKDRFSISEDSVKNAVYLQMNSLKPEDTAVYYCAAVRQMYMTVVPDYWGQGTLVTVSSGAADYKDHDGDYKDHDIDYKDDDDKGAAHHHHHH
notes: Bispecific Nanobody construct with tags, expressed in Pichia; also called T0170060E11-35GS-20CD019C07-FLAG3-HIS6; CD3xCD20 (cluster B)
In the case of B6, the “Average IC50 (M) … 44 h” value in experiment [2] is 4.89e-10 M. This molecule had an EC50 in experiment [3] of 32 nM. In addition, in experiment [4], the “% lysis (% dead cells at 500 nM Nanobody minus no Nanobody control), Ramos killing assay, E:T 10:1” value came to 29% and the “Average IC50 (M) … E:T 10:1” value turned out to be 6.8e-09 M.

B7: T017000057 (bispecific antibody)
chain: EVQLVESGGGLVQPGGSLRLSCTFSGGTFSSYTMGWFRQAPGKEREFVAEVRWGGVTTYSNSLKDRFSISEDSVKNAVYLQMNSLKPEDTAVYYCAAVRQMYMTVVPDYWGQGTLVTVSSGGGGSGGGGSGGGGSGGGGSGGGGSGGGGSGGGGSEVQLVESGGGLVQAGGSLRLSCAASGRSFNMNPLGWFRQSPGKEREFVAAHRWSDGNTYYVDSVKGRFTISRDNAKNTVYLQMNSLKSEDTAVYYCAAGRPWSAFRSPGEYVYWGQGTLVTVSSGAADYKDHDGDYKDHDIDYKDDDDKGAAHHHHHH
Turning to B7, in experiment [4], the “% lysis (% dead cells at 500 nM Nanobody minus no Nanobody control), Ramos killing assay, E:T 10:1” value is 3% and the “Average IC50 (M) … E:T 10:1” value stood at 1.4e-09 M.

B8: T017000061 (bispecific antibody)
chain: EVQLVESGGGLVQPGGSLRLSCTFSGGTFSSYTMGWFRQAPGKEREFVAEVRWGGVTTYSNSLKDRFSISEDSVKNAVYLQMNSLKPEDTAVYYCAAVRQMYMTVVPDYWGQGTLVTVSSGGGGSGGGGSGGGGSGGGGSGGGGSGGGGSGGGGSEVQLVESGGGLVQGGGSLSLSCAASGRTFSSYAMAWFRQPPGKEREFVASISWSGENTNYRNSVKGRFTISRDNAKNTVYLQMNSLKPEDTAVYYCAAKIAKTYPDNWYWTKSNNYNYWGQGTLVTVSSGAADYKDHDGDYKDHDIDYKDDDDKGAAHHHHHH
On to B8, for which, in experiment [4], the “% lysis (% dead cells at 500 nM Nanobody minus no Nanobody control), Ramos killing assay, E:T 10:1” value was determined as 13% and the “Average IC50 (M) … E:T 10:1” value amounted to 2.9e-08 M.

B9: T017000056 (bispecific antibody)
chain: EVQLVESGGGLVQPGGSLRLSCTFSGGTFSSYTMGWFRQAPGKEREFVAEVRWGGVTTYSNSLKDRFSISEDSVKNAVYLQMNSLKPEDTAVYYCAAVRQMYMTVVPDYWGQGTLVTVSSGGGGSGGGGSGGGGSGGGGSGGGGSGGGGSGGGGSEVQLVESGGGAVQPGGSLRLSCAASGIRISRNMMGWFRQAPGKQRDLVARITPGGDTYYVDSVKGRFSISKDNAKNTVYLQMNSLKPEDTAVYYCNSYSTLGSWGQGTLVTVSSGAADYKDHDGDYKDHDIDYKDDDDKGAAHHHHHH
Turning to B9, in experiment [4], the “% lysis (% dead cells at 500 nM Nanobody minus no Nanobody control), Ramos killing assay, E:T 10:1” value was 4% and the “Average IC50 (M) … E:T 10:1” value was determined as 1.5e-08 M.

In general, EC50 refers to the midpoint of the concentration-response curve. The low end stands for higher potency in that assay, the high end for lower potency in that assay.
